T1: mouse eNOS (mouse, UniProt P70313 2-1202)
T1 construct: whole, on cells; Endogenous protein in mouse wound homogenates used for Co-IP; also called eNOS (mouse wounds)
T1 sequence (looked up): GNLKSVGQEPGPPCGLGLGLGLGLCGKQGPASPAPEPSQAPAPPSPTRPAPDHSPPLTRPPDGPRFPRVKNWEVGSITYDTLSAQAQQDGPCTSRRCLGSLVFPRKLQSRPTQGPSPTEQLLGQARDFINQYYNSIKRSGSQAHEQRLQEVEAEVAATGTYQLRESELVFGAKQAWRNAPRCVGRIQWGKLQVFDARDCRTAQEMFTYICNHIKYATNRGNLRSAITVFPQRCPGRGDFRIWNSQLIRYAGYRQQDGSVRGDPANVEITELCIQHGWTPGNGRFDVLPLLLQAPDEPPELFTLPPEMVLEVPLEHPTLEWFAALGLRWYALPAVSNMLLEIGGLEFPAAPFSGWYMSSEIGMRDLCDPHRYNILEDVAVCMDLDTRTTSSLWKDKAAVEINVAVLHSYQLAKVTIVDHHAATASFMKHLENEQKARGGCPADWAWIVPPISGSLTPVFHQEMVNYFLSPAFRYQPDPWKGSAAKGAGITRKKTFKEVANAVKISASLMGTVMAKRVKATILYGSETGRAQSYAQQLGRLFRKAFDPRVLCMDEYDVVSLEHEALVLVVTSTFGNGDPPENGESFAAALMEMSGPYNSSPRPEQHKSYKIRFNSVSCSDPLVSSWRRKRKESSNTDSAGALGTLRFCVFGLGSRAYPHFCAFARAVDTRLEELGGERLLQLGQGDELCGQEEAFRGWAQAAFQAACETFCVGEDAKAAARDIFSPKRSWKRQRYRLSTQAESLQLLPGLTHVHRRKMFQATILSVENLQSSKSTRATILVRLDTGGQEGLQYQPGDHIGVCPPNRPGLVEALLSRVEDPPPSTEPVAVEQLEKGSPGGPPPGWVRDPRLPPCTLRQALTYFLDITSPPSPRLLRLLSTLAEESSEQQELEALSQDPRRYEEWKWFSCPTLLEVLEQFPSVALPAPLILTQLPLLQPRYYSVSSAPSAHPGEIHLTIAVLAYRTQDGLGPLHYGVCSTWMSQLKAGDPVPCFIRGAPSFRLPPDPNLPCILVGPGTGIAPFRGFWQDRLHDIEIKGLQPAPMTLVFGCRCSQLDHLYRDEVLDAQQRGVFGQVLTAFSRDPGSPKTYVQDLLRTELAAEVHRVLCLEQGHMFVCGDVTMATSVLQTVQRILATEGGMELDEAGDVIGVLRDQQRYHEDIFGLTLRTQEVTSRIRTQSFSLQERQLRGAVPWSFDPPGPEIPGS

B1: human endothelial nitric oxide synthase (eNOS) (enzyme)
chain: GNLKSVAQEPGPPCGLGLGLGLGLCGKQGPATPAPEPSRAPASLLPPAPEHSPPSSPLTQPPEGPKFPRVKNWEVGSITYDTLSAQAQQDGPCTPRRCLGSLVFPRKLQGRPSPGPPAPEQLLSQARDFINQYYSSIKRSGSQAHEQRLQEVEAEVAATGTYQLRESELVFGAKQAWRNAPRCVGRIQWGKLQVFDARDCRSAQEMFTYICNHIKYATNRGNLRSAITVFPQRCPGRGDFRIWNSQLVRYAGYRQQDGSVRGDPANVEITELCIQHGWTPGNGRFDVLPLLLQAPDDPPELFLLPPELVLEVPLEHPTLEWFAALGLRWYALPAVSNMLLEIGGLEFPAAPFSGWYMSTEIGTRNLCDPHRYNILEDVAVCMDLDTRTTSSLWKDKAAVEINVAVLHSYQLAKVTIVDHHAATASFMKHLENEQKARGGCPADWAWIVPPISGSLTPVFHQEMVNYFLSPAFRYQPDPWKGSAAKGTGITRKKTFKEVANAVKISASLMGTVMAKRVKATILYGSETGRAQSYAQQLGRLFRKAFDPRVLCMDEYDVVSLEHETLVLVVTSTFGNGDPPENGESFAAALMEMSGPYNSSPRPEQHKSYKIRFNSISCSDPLVSSWRRKRKESSNTDSAGALGTLRFCVFGLGSRAYPHFCAFARAVDTRLEELGGERLLQLGQGDELCGQEEAFRGWAQAAFQAACETFCVGEDAKAAARDIFSPKRSWKRQRYRLSAQAEGLQLLPGLIHVHRRKMFQATIRSVENLQSSKSTRATILVRLDTGGQEGLQYQPGDHIGVCPPNRPGLVEALLSRVEDPPAPTEPVAVEQLEKGSPGGPPPGWVRDPRLPPCTLRQALTFFLDITSPPSPQLLRLLSTLAEEPREQQELEALSQDPRRYEEWKWFRCPTLLEVLEQFPSVALPAPLLLTQLPLLQPRYYSVSSAPSTHPGEIHLTVAVLAYRTQDGLGPLHYGVCSTWLSQLKPGDPVPCFIRGAPSFRLPPDPSLPCILVGPGTGIAPFRGFWQERLHDIESKGLQPTPMTLVFGCRCSQLDHLYRDEVQNAQQRGVFGRVLTAFSREPDNPKTYVQDILRTELAAEVHRVLCLERGHMFVCGDVTMATNVLQTVQRILATEGDMELDEAGDVIGVLRDQQRYHEDIFGLTLRTQEVTSRIRTQSFSLQERQLRGAVPWAFDPPGSDTNSP
notes: whole, on cells; Endogenous intracellular / membrane-associated protein of human endothelial cells; co-immunoprecipitated from lysates
B2: mouse CCR10 (receptor, UniProt Q9JL21 1-362, looked up)
chain: MGTKPTEQVSWGLYSGYDEEAYSVGPLPELCYKADVQAFSRAFQPSVSLMVAVLGLAGNGLVLATHLAARRTTRSPTSVHLLQLALADLLLALTLPFAAAGALQGWNLGSTTCRAISGLYSASFHAGFLFLACISADRYVAIARALPAGQRPSTPSRAHLVSVFVWLLSLFLALPALLFSRDGPREGQRRCRLIFPESLTQTVKGASAVAQVVLGFALPLGVMAACYALLGRTLLAARGPERRRALRVVVALVVAFVVLQLPYSLALLLDTADLLAARERSCSSSKRKDLALLVTGGLTLVRCSLNPVLYAFLGLRFRRDLRRLLQGGGCSPKPNPRGRCPRRLRLSSCSAPTETHSLSWDN
notes: whole, on cells; Endogenous protein in mouse wound homogenates used for Co-IP; also called CCR10 (mouse wounds)

Columns and labels:
calmodulin (CaM) = calmodulin (CaM) (human, UniProt P0DP23 2-149); assay: Co-IP in endothelial cells; not affected by Myr-CBD7 pretreatment
mouse eNOS = biological target: T1, mouse eNOS; assay: Co-IP from mouse wounds (FIG. 4)

| Binder | binding result (calmodulin (CaM)) | binding result (mouse eNOS) |
| --- | --- | --- |
| B1 | binds |  |
| B2 |  | binds |
